According to PMC9482650, “Quantitative fragmentomics allow affinity mapping of interactomes” (Nature Communications, 2022):

T1: TIAM2, Q8IVF5
T1 sequence (Q8IVF5 885-986, limits assumed, looked up): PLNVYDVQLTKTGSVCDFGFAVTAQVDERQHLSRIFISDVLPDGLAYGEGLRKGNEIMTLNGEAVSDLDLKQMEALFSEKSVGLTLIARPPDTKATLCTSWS

T2: GRIP1_7, Q9Y3R0
T2 sequence (Q9Y3R0 999-1096, limits assumed, looked up): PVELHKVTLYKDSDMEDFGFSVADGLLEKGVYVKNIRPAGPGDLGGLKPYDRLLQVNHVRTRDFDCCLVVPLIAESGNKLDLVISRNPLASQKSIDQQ

T3: FRMPD1, Q5SYB0
T3 sequence (Q5SYB0 52-145, limits assumed, looked up): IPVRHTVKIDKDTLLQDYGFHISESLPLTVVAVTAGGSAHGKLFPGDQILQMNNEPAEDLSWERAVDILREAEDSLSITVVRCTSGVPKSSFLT

T4: MPDZ_12, O75970
T4 sequence (O75970 1857-1958, limits assumed, looked up): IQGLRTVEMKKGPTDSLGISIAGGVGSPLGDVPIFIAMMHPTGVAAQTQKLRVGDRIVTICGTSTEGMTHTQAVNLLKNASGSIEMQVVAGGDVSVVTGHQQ

T5: CARD11, Q9BXL7
T5 sequence (Q9BXL7 662-765, limits assumed, looked up): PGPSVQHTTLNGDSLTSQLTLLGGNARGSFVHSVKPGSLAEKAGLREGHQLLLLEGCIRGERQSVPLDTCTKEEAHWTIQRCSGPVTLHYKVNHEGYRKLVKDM

T6: DVL3, Q92997
T6 sequence (Q92997 244-331, limits assumed, looked up): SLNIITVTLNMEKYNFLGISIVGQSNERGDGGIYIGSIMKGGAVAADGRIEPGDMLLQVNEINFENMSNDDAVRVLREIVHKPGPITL

T7: PDZD7_3, Q9H5P4
T7 sequence (Q9H5P4 857-944, limits assumed, looked up): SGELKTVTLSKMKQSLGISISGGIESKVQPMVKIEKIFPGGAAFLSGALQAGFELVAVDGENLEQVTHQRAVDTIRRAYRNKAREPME

T8: APBA2_2, Q99767
T8 sequence (Q99767 654-744, limits assumed, looked up): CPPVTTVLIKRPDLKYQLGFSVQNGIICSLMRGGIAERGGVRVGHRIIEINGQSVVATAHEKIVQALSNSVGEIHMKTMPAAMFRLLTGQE

T9: MPP7, Q5T2T1
T9 sequence (Q5T2T1 134-230, limits assumed, looked up): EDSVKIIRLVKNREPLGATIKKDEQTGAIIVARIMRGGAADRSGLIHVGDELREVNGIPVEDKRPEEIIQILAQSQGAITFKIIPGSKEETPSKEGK

T10: SNTG1, Q9NSN8
T10 sequence (Q9NSN8 52-150, limits assumed, looked up): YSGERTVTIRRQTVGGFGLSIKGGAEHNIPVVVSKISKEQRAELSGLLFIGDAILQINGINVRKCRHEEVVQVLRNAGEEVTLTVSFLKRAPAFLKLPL

T11: MPP2, Q14168
T11 sequence (Q14168 180-250, limits assumed, looked up): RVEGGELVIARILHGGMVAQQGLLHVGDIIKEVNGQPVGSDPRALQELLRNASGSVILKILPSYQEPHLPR

T12: LNX2_2, Q8N448
T12 sequence (Q8N448 334-432, limits assumed, looked up): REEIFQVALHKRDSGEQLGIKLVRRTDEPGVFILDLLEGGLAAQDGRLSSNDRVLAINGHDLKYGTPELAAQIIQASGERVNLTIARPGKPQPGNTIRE

T13: HTRA4, P83105
T13 sequence (P83105 378-476, limits assumed, looked up): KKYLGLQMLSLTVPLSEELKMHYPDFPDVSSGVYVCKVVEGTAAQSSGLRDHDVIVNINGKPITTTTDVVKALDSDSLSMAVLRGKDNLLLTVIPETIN

T14: APBA2_1, Q99767
T14 sequence (Q99767 563-664, limits assumed, looked up): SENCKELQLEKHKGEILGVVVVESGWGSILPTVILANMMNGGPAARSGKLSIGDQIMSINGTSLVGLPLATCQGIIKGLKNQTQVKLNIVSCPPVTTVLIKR

T15: NHERF3_3, Q5T2W1
T15 sequence (Q5T2W1 238-333, limits assumed, looked up): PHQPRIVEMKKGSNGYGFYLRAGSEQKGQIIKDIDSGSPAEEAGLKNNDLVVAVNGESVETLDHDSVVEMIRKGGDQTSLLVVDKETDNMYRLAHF


Tests used:
Assay in all cases: holdup assay
Set-up in all cases: key: below the threshold = too weak to quantify, mostly under pKd 3.1 to 4
Conditions in all cases: plain residues with an end cap or a label only (N-terminal biotin on a linker: ado-ado)
[1] = biological target: T1, TIAM2, Q8IVF5
[2] = biological target: T2, GRIP1_7, Q9Y3R0
[3] = biological target: T3, FRMPD1, Q5SYB0
[4] = biological target: T4, MPDZ_12, O75970
[5] = biological target: TJP1_2, Q07157
[6] = biological target: GRIP2_3, Q9C0E4
[7] = biological target: T5, CARD11, Q9BXL7
[8] = biological target: SCRIB_1, Q14160
[9] = biological target: ARHGEF12, Q9NZN5-2
[10] = biological target: Inadl_3, Q8NI35
[11] = biological target: T6, DVL3, Q92997
[12] = biological target: T7, PDZD7_3, Q9H5P4
[13] = biological target: MAST2, Q6P0Q8
[14] = biological target: T8, APBA2_2, Q99767
[15] = biological target: T9, MPP7, Q5T2T1
[16] = biological target: T10, SNTG1, Q9NSN8
[17] = biological target: T11, MPP2, Q14168
[18] = biological target: AHNAK1, Q09666
[19] = biological target: LIMK2, P53671
[20] = biological target: T12, LNX2_2, Q8N448
[21] = biological target: T13, HTRA4, P83105
[22] = biological target: T14, APBA2_1, Q99767
[23] = biological target: T15, NHERF3_3, Q5T2W1

Sequence of Inadl_3, Q8NI35 (Q8NI35 359-469): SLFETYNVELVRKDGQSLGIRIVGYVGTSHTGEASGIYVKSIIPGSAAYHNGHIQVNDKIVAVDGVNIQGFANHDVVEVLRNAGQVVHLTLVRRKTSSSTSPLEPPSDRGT
Sequence of TJP1_2, Q07157 (Q07157 181-274): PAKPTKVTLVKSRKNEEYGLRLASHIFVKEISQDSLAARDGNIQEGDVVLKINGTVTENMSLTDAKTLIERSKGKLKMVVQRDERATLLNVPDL
Sequence of MAST2, Q6P0Q8 (Q6P0Q8 1099-1202): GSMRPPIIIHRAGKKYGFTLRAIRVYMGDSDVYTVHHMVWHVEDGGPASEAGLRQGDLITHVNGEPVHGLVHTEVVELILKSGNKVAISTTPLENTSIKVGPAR
Sequence of SCRIB_1, Q14160 (Q14160 718-814): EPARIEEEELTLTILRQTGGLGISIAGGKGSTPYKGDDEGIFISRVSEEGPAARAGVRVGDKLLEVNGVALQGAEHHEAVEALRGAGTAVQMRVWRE
Sequence of AHNAK1, Q09666 (Q09666 4-100): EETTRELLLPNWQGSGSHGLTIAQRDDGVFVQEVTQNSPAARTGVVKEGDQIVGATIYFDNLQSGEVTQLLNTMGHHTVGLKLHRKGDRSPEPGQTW
Sequence of LIMK2, P53671 (P53671 143-248): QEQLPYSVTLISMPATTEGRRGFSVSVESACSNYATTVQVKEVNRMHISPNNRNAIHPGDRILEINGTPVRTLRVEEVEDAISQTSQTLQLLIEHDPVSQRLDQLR
Sequence of ARHGEF12, Q9NZN5-2 (Q9NZN5 other isoform, or with tags, fused parts or gaps): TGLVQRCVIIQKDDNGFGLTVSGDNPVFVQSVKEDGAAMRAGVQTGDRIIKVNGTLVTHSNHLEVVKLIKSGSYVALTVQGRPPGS
Sequence of GRIP2_3, Q9C0E4 (Q9C0E4 238-339): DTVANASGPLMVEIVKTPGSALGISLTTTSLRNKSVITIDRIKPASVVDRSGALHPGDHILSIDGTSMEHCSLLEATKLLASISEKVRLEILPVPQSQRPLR

Binder	pKd [1]	pKd [2]	pKd [3]	pKd [4]	pKd [5]	pKd [6]	pKd [7]	pKd [8]	pKd [9]	pKd [10]	pKd [11]	pKd [12]	pKd [13]	pKd [14]	pKd [15]	pKd [16]	pKd [17]	pKd [18]	pKd [19]	pKd [20]	other results
KPDKQEEFYA [SDC3, O75056]	4.04	below the threshold	below the threshold	3.73	below the threshold	below the threshold	below the threshold	below the threshold	below the threshold	below the threshold	below the threshold	below the threshold	4.17	below the threshold	below the threshold	below the threshold	below the threshold	below the threshold	below the threshold	below the threshold	pKd [21]: below the threshold; pKd [22]: below the threshold; pKd [23]: below the threshold
KEKASTETEC [TRPM1, Q7Z4N2]	below the threshold	below the threshold	below the threshold	below the threshold	below the threshold	below the threshold	below the threshold	4.31	3.58	below the threshold	below the threshold	below the threshold	4.78	below the threshold	below the threshold	below the threshold	below the threshold	below the threshold	below the threshold	below the threshold	pKd [21]: below the threshold; pKd [22]: below the threshold; pKd [23]: below the threshold
FVFESRKEIL [TBPL1, P62380]	below the threshold	below the threshold	below the threshold	below the threshold	below the threshold	below the threshold	below the threshold	below the threshold	below the threshold	below the threshold	below the threshold	3.99	4.95	below the threshold	below the threshold	below the threshold	below the threshold	below the threshold	below the threshold	below the threshold	pKd [21]: below the threshold; pKd [22]: below the threshold; pKd [23]: below the threshold
